94 variants from the supplement of paper PMC10567573 can be followed below.

First the molecules themselves.
B1: KRT34 (parent)
chain: YQSYFKTIEELQQKILCAKAENAR
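Note: lentivirally expressed fusions sorted by FACS into six bins by GFP to DsRed ratio, PSI derived from sequencing read proportions per bin multiplied by bin number.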

The variants in the series derive from B1. The series can be described thus: protein stability index of a GFP-peptide fusion (GPS, HEK-293T) (PSI 1-6); higher = more stable. Conditions: c terminus: a fixed tail appended.
As for YQSYFKTIEELQQKILCAKARNAR, the protein stability index was determined as 2.12.
Next, YQSYFKTIEELQQKILCAKAQNAR: 1.89.
As to YQSYFKTIEELQQKILCAKAANAR, the protein stability index came out at 2.93.
With YQSYFKTIEELQQKILCAKAPNAR, the protein stability index was 2.14.
The figure for YQSYFKTIEELQQKILCAKALNAR is 2.17; for YQSYFKTIEELQQKILCAKAFNAR it is 1.17.
For the variant TQSYFKTIEELQQKILCAKAENAR, the protein stability index came out at 3.08.
As for PQSYFKTIEELQQKILCAKAENAR, the protein stability index was determined as 3.59.
The figure for KQSYFKTIEELQQKILCAKAENAR is 2.88; for MQSYFKTIEELQQKILCAKAENAR it is 2.1; for CQSYFKTIEELQQKILCAKAENAR it is 2.23.
Turning to YQSYFPTIEELQQKILCAKAENAR, the protein stability index is 1.81.
The figure for YQSYFATIEELQQKILCAKAENAR is 1.96; for YQSYFETIEELQQKILCAKAENAR it is 1.85; for YQSYFYTIEELQQKILCAKAENAR it is 1.66.
Next, YQSYFCTIEELQQKILCAKAENAR: 1.51; YQSYFTTIEELQQKILCAKAENAR: 2.67; YQSYFITIEELQQKILCAKAENAR: 1.91.
The figure for YQSYFKTIEELQQKILCAKEENAR is 2.14; for YQSYFKTIEELQQKILCAKYENAR it is 1.3; for YQSYFKTIEELQQKILCAKHENAR it is 2.06.
Take YQSYFKTIEELQQKILCAKKENAR: the protein stability index was determined as 2.16.
On to YQSYFKTIEELQQKILCAKVENAR, for which the protein stability index amounted to 1.71.
The figure for YQSYFKTIEELQQKILCAKMENAR is 2.57; for YQSYFKTIEELQQKILCAKIENAR it is 1.86.
As to YQSYFKTIEELQQKILCAKRENAR, the protein stability index stood at 1.88.
Turning to YQSYFKTIEELQQKILCAKQENAR, the protein stability index turned out to be 1.78.
Next, YQSYFKTIEELQQKILCAKTENAR: 1.87; YVSYFKTIEELQQKILCAKAENAR: 1.54.
Next, YLSYFKTIEELQQKILCAKAENAR: 1.9.
Consider YDSYFKTIEELQQKILCAKAENAR, for which the protein stability index stood at 2.13.
The figure for YRSYFKTIEELQQKILCAKAENAR is 2.25; for YNSYFKTIEELQQKILCAKAENAR it is 2.28.
As to YESYFKTIEELQQKILCAKAENAR, the protein stability index came out at 3.07.
In the case of YKSYFKTIEELQQKILCAKAENAR, the protein stability index worked out at 2.54.
YGSYFKTIEELQQKILCAKAENAR: the protein stability index came out at 2.12.
The figure for YQSYFKTIEELQQKILCAKAEEAR is 1.89.
Take YQSYFKTIEELQQKILCAKAEHAR: the protein stability index came to 1.81.
On to YQSYFKTIEELQQKILCAKAERAR, for which the protein stability index was 1.43.
Next, YQSYFKTIEELQQKILCAKAEFAR: 2.17; YQSYFKTIEELQQKILCAKAESAR: 2.46; YQSYFKTIEELQQKILCAKAEPAR: 1.89.
Next, YQSYFKTIGELQQKILCAKAENAR: 1.64.
Next, YQSYFKTIPELQQKILCAKAENAR: 1.29; YQSYFKTILELQQKILCAKAENAR: 1.53.
For the variant YQSYFKTISELQQKILCAKAENAR, the protein stability index amounted to 1.99.
Next, YQSYFKTIIELQQKILCAKAENAR: 2; YQSYFKTIWELQQKILCAKAENAR: 2.23; YQSYFKTIMELQQKILCAKAENAR: 3.64.
The figure for YQSYFKTIEELQQKILCAKAENTR is 1.64.
Next, YQSYFKTIEELQQKILCAKAENCR: 1.39; YQSYFKTIEELQQKILCAKAENQR: 2.17.
Consider YQSYFKTIEELQQKILCAKAENHR, for which the protein stability index is 2.93.
Take YQSYFKTIEELQQKILCAKAENYR: the protein stability index was determined as 1.87.
For the variant YQSYFKTIEELQQKILCAKAENPR, the protein stability index is 2.38.
On to YQSYFKTIEELQQKILCAKAENMR, for which the protein stability index came out at 1.88.
YQSYFKTIEELIQKILCAKAENAR: the protein stability index is 3.66.
On to YQSYFKTIEELPQKILCAKAENAR, for which the protein stability index stood at 1.4.
In the case of YQSYFKTIEELGQKILCAKAENAR, the protein stability index stood at 1.97.
Next, YQSYFKTIEELRQKILCAKAENAR: 2.63; YQSYFKTIEELNQKILCAKAENAR: 1.65; YQSYFKTIEELLQKILCAKAENAR: 1.9.
The figure for YQSYFKTIEELMQKILCAKAENAR is 2.15; for YQSYFKTIEELSQKILCAKAENAR it is 1.77.
Turning to YQSYFKTIEELTQKILCAKAENAR, the protein stability index is 2.21.
The figure for YQSYFKTIEELCQKILCAKAENAR is 1.78; for YQSYFKTIEELQQKQLCAKAENAR it is 1.71.
Take YQSYFKTIEELQQKFLCAKAENAR: the protein stability index was 1.6.
Consider YQSYFKTIEELQQKCLCAKAENAR, for which the protein stability index amounted to 1.16.
Next, YQSYFKTIEELQQKELCAKAENAR: 2.03; YQSYFKTIEELQQKSLCAKAENAR: 1.81.
The figure for YQSYFKTIEELQQKGLCAKAENAR is 1.45; for YQSYFKTIEELQQKPLCAKAENAR it is 1.71.
As for YQSYFKTIEELQQKNLCAKAENAR, the protein stability index worked out at 2.23.
Next, YQSYFKTIEELQQKILVAKAENAR: 1.37; YQSYFKTIEELQQKILTAKAENAR: 2.04.
As to YQSYFKTIEELQQKILDAKAENAR, the protein stability index worked out at 1.84.
With YQSYFKTIEELQQKILSAKAENAR, the protein stability index turned out to be 2.19.
For the variant YQSYFKTIEELQQKILPAKAENAR, the protein stability index was 2.25.
As to YQSYFKTIEELQQKILHAKAENAR, the protein stability index stood at 2.06.
YQSYFKTIEELQQKILMAKAENAR: the protein stability index is 2.11.
Next, YQSYFKTIEELQQKILYAKAENAR: 2.15; YQSYFKTIEELQQKILIAKAENAR: 2.16; YQSYFKTIEELQQKILAAKAENAR: 2.56.
Next, YQSYFKTIEELQQKILEAKAENAR: 2.39.
The figure for YQSYFKTIEECQQKILCAKAENAR is 2.56; for YQSYFKTIEEGQQKILCAKAENAR it is 2.58; for YQSYFKTIEEMQQKILCAKAENAR it is 1.81.
As to YQSYFKTIEEDQQKILCAKAENAR, the protein stability index turned out to be 1.5.
For the variant YQSYFKTIEEEQQKILCAKAENAR, the protein stability index worked out at 1.88.
In the case of YQSYFKTIEEHQQKILCAKAENAR, the protein stability index stood at 1.55.
For YQSYFKTIEETQQKILCAKAENAR, the protein stability index came out at 1.62.
The figure for YQSYFKTIEEPQQKILCAKAENAR is 2.3; for YQSYFKTIEQLQQKILCAKAENAR it is 1.19.
